Experimental data published in PMC5779224 (2017).

B1: AnkB_AI-b (aa 865–896) [human] / AnkB 28–847 (MBD + partial AI-c) [human] (parent complex)
chain 1: EDLKELGDDSLPSSQFLDGMNYLRYSLEGGRS
chain 2: KSDSNASFLRAARAGNLDKVVEYLKGGIDINTCNQNGLNALHLAAKEGHVGLVQELLGRGSSVDSATKKGNTALHIASLAGQAEVVKVLVKEGANINAQSQNGFTPLYMAAQENHIDVVKYLLENGANQSTATEDGFTPLAVALQQGHNQAVAILLENDTKGKVRLPALHIAARKDDTKSAALLLQNDHNADVQSKMMVNRTTESGFTPLHIAAHYGNVNVATLLLNRGAAVDFTARNGITPLHVASKRGNTNMVKLLLDRGGQIDAKTRDGLTPLHCAARSGHDQVVELLLERGAPLLARTKNGLSPLHMAAQGDHVECVKHLLQHKAPVDDVTLDYLTALHVAAHCGHYRVTKLLLDKRANPNARALNGFTPLHIACKKNRIKVMELLVKYGASIQAITESGLTPIHVAAFMGHLNIVLLLLQNGASPDVTNIRGETALHMAARAGQVEVVRCLLRNGALVDARAREEQTPLHIASRLGKTEIVQLLLQHMAHPDAATTNGYTPLHISAREGQVDVASVLLEAGAAHSLATKKGFTPLHVAAKYGSLDVAKLLLQRRAAADSAGKNGLTPLHVAAHYDNQKVALLLLEKGASPHATAKNGYTPLHIAAKKNQMQIASTLLNYGAETNIVTKQGVTPLHLASQEGHTDMVTLLLDKGANIHMSTKSGLTSLHLAAQEDKVNVADILTKHGADQDAHTKLGYTPLIVACHYGNVKMVNFLLKQGANVNAKTKNGYTPLHQAAQQGHTHIINVLLQHGAKPNATTANGNTALAIAKRLGYISVVDTLKVVTEEVTTTTTTITEKHKLNVPETMTEVLDVSD
B2: AnkG linker ΔAI-c (aa 861–920) [rat] / AnkG 38–855 (AnkG MBD-AI-c protein; MBD + partial AI-c) [rat] (parent complex)
chain 1: KASAPEKLSDGEYISDGEEGEDAITGDTDKYLGPQDLKELGDDSLPAEGYVGFSLGARSA
chain 2: KSDANASYLRAARAGHLEKALDYIKNGVDVNICNQNGLNALHLASKEGHVEVVSELLQREANVDAATKKGNTALHIASLAGQAEVVKVLVTNGANVNAQSQNGFTPLYMAAQENHLEVVRFLLDNGASQSLATEDGFTPLAVALQQGHDQVVSLLLENDTKGKVRLPALHIAARKDDTKAAALLLQNDTNADIESKMVVNRATESGFTPLHIAAHYGNINVATLLLNRAAAVDFTARNDITPLHVASKRGNANMVKLLLDRGAKIDAKTRDGLTPLHCGARSGHEQVVEMLLDRAAPILSKTKNGLSPLHMATQGDHLNCVQLLLQHNVPVDDVTNDYLTALHVAAHCGHYKVAKVLLDKKANPNAKALNGFTPLHIACKKNRIRVMELLLKHGASIQAVTESGLTPIHVAAFMGHVNIVSQLMHHGASPNTTNVRGETALHMAARSGQAEVVRYLVQDGAQVEAKAKDDQTPLHISARLGKADIVQQLLQQGASPNAATTSGYTPLHLSAREGHEDVAAFLLDHGASLSITTKKGFTPLHVAAKYGKLEVASLLLQKSASPDAAGKSGLTPLHVAAHYDNQKVALLLLDQGASPHAAAKNGYTPLHIAAKKNQMDIATSLLEYGADANAVTRQGIASVHLAAQEGHVDMVSLLLSRNANVNLSNKSGLTPLHLAAQEDRVNVAEVLVNQGAHVDAQTKMGYTPLHVGCHYGNIKIVNFLLQHSAKVNAKTKNGYTPLHQAAQQGHTHIINVLLQNNASPNELTVNGNTALAIARRLGYISVVDTLKVVTEEIMTTTTITEKHKMNVPETMNEVLDMS
B3: AnkB_AI-c (aa 828–852) [human] / AnkB_MBD (AnkB ANK repeats only, aa 28–827) [human] (parent complex)
chain 1: TEKHKLNVPETMTEVLDVSDEEGDD
chain 2: KSDSNASFLRAARAGNLDKVVEYLKGGIDINTCNQNGLNALHLAAKEGHVGLVQELLGRGSSVDSATKKGNTALHIASLAGQAEVVKVLVKEGANINAQSQNGFTPLYMAAQENHIDVVKYLLENGANQSTATEDGFTPLAVALQQGHNQAVAILLENDTKGKVRLPALHIAARKDDTKSAALLLQNDHNADVQSKMMVNRTTESGFTPLHIAAHYGNVNVATLLLNRGAAVDFTARNGITPLHVASKRGNTNMVKLLLDRGGQIDAKTRDGLTPLHCAARSGHDQVVELLLERGAPLLARTKNGLSPLHMAAQGDHVECVKHLLQHKAPVDDVTLDYLTALHVAAHCGHYRVTKLLLDKRANPNARALNGFTPLHIACKKNRIKVMELLVKYGASIQAITESGLTPIHVAAFMGHLNIVLLLLQNGASPDVTNIRGETALHMAARAGQVEVVRCLLRNGALVDARAREEQTPLHIASRLGKTEIVQLLLQHMAHPDAATTNGYTPLHISAREGQVDVASVLLEAGAAHSLATKKGFTPLHVAAKYGSLDVAKLLLQRRAAADSAGKNGLTPLHVAAHYDNQKVALLLLEKGASPHATAKNGYTPLHIAAKKNQMQIASTLLNYGAETNIVTKQGVTPLHLASQEGHTDMVTLLLDKGANIHMSTKSGLTSLHLAAQEDKVNVADILTKHGADQDAHTKLGYTPLIVACHYGNVKMVNFLLKQGANVNAKTKNGYTPLHQAAQQGHTHIINVLLQHGAKPNATTANGNTALAIAKRLGYISVVDTLKVVTEEVTTTTTTI
B4: AnkB_AI-a peptide (aa 1623–1635) [human] / AnkB_MBD (AnkB ANK repeats only, aa 28–827) [human] (parent complex)
chain 1: HPPIVSEEDISVG
chain 2: B3 chain 2

Variants of: B1
Assay: ITC; parent: 2.7e+03 nM

| Kd [µM] | Variant |
| --- | --- |
| 8.5 | chain 2 I240Q, chain 2 L273Q |

Variants of: B1
Assay: ITC; parent: 2.7e+03 nM
Remark: another data set of the same source

| Kd [µM] | Variant |
| --- | --- |
| 16 | chain 1 Y22A |

Variants of: B2
Assay: ITC; parent: 1.6e+03 nM

| Kd [µM] | Variant |
| --- | --- |
| 3.9 | chain 2 I240Q, chain 2 L273Q |
| 2.6 | chain 2 F104Q, chain 2 F137Q |

Variants of: B3
Assay: ITC; parent: 360 nM

| Kd [µM] | Variant |
| --- | --- |
| 3.9 | chain 1 L16Q |
| 2.7 | chain 1 N7K |
| 4.4 | chain 1 M12Q |

Variants of: B3
Assay: ITC; parent: 360 nM
Remark: another data set of the same source

| Kd [µM] | Variant |
| --- | --- |
| 2.4 | chain 2 N568A |

Variants of: B4
Assay: fluorescence polarisation; parent: 7.3e+03 nM

| Kd [µM] | Variant |
| --- | --- |
| 43.8 | chain 2 R10E, chain 2 R13E |
